From patent publication US7166691B2, “Saposin C and receptors as targets for treatment of benign and malignant disorders” (priority 2002, dated 2007)

Key:
[1] = tested on: prosaposin; settings: LNCaP and normal prostate stromal cells; 0.1, 1, 10 nM; 24 h
[2] = tested on: normal prostate stromal cells; settings: NaSe 10 μM, 48 h
[3] = tested on: enzymes in the MAPK signaling transduction pathway (MEK1/2, p42/44, p90RSK); test: Activation of MAPK signaling transduction pathway (phospho-specific Western); assay type: cell-based, human; settings: PC-3, DU-145, LNCaP
Procedure: (§1) Cells were grown to 80% confluency by incubating in their respective serum-free basal media for 18 h. For each cell line, tissue culture plates were pre-treated with a specific MEK1/2 inhibitor (U0126, Cat.# 9903, Cell Signaling Technology, Beverly, Mass.) at 10 μM for 1.5 h. Saposin C and TX14A were added at the following concentrations: 0.1, 1.0, and 10 nM. The cells were then incubated at 37° C. for 5 min, washed, and lysed on ice in RIPA buffer supplemented with protease inhibitors and 1 mM sodium orthovandate, as described in S. Koochekpour et al., 1999. Clarified cell lysates were subjected to Western analysis using phospho-specific antibodies against three enzymes in the MAPK Pathway: MEK1/2 (Ser217/22; Cat.# 9121; Cell Signaling Technology, Beverly, Mass.); p90RSK (p90^rsk, Ser380, Cat# 9341, Cell Signaling Technology); and p42/44 MAP Kinases (p44^MAPK, p42^MAPK; Thr202/Tyr204, Cat# 9102; Cell Signaling Technology). Primary antibodies against p42/44 MAP kinase (Cell Signaling Technology) or against tubulin (Cat# 12463, Santa Cruz Biotechnology, Santa Cruz, Calif.) were used as controls. To quantify the difference between the control and the various treatments, the autoradiograms were read on a densitometer, an Alpha Imager 2000 (Alpha Innotech Corp., San Leandro, Calif.).

[4] = tested on: PC-3; test: Transwell cell migration assay; assay type: cell-based, human; settings: saposin C 0.1-10 nM in lower compartment, 16 h
Procedure: (§2) To test the effect of saposin C on prostatic cell migration and invasion, cell migration and invasion assays were performed using 24-well transwell units with 8-μm polycarbonate filters (Costar, purchased from Becton Dickinson, Bedford, Mass.), as described in S. Koochekpour et al., “Met and […] expression in human glioma,” Cancer Res., vol. 57, pp. 5391–5398 (1997). For invasion assays, transwell filters were coated with 20 μg GFR-Matrigel matrix (Becton Dickenson) in 100 μl of basal medium, and left to air dry overnight. To the lower compartment of each transwell unit, was added 400 μl of basal media supplemented with 0.5% FBS and 0.1% BSA. Saposin C was then added to the lower compartment in the following concentrations: 0 (control), 0.1 nM, 1 nM, and 10 nM.
(§3) Cultured cells were freshly harvested by trypsinization and counted. Approximately 5000 cells were resuspended in 100 μl of serum-free medium With 0.1% BSA, and were placed in the upper compartment of the transwell unit. After 16 h of incubation at 37° C., cells in both the upper and lower compartments were fixed in methanol and stained with Diff-Quick (Dade, Aguada, Puerto Rico). Non-migratory cells in the upper surface of the filter were removed by wiping with a cotton swab. Cells under the filter were counted. The results of cell migration are shown in FIG. 4A; and of cell invasion in FIG. 4B. Each bar represents the mean +/−SEM of three duplicate experiments, and samples from each experiment were counted at least three times.

[5] = tested on: DU-145; test: Transwell cell migration assay; assay type: cell-based, human; settings: saposin C 0.1-10 nM, 16 h
Procedure: as §2, §3

[6] = tested on: normal primary prostate epithelial cells; test: Transwell cell migration assay; assay type: cell-based, human; settings: presence or absence of saposin C
Procedure: as §2, §3

[7] = tested on: LNCaP; test: Transwell cell migration assay; assay type: cell-based, human; settings: saposin C 0.1-10 nM, 16 h
Procedure: as §2, §3

[8] = tested on: DU-145 cells; test: Protection from NaSe-induced cell death (trypan blue exclusion); assay type: cell-based, human; settings: NaSe 10 μM, 48 h
[9] = tested on: PSA; test: Western blot of supernatant for PSA expression in LNCaP cells; assay type: cell-based, human; settings: 24 h, at concentrations as low as 0.1 nM
Procedure: To investigate the effect of saposin C on the expression of PSA in LNCaP cells, cells were cultured in the preferred media up to 80% confluency, and then washed twice with PBS. The cells were incubated in serum-free medium supplemented with either testosterone (T), dihydrotestosterone (DHT), saposin C or TX14A at the following concentrations: 0, 0.1, 1 or 10 nM. […] The supernatants were concentrated 5-fold using Centriprep-3 concentrator (Amikon, Beverley, Mass.) and stored frozen in −70° C. until use. A Western blot analysis was performed (as in Examples 2 and 6) using commercially available anti-PSA (Santa Cruz Biotechnology, Santa Cruz, Calif.).

[10] = tested on: PC-3; test: Transwell Matrigel cell invasion assay; assay type: cell-based, human; settings: saposin C 0.1-10 nM, 16 h
Procedure: as §2, §3

[11] = tested on: DU-145; test: Transwell Matrigel cell invasion assay; assay type: cell-based, human; settings: saposin C 0.1-10 nM, 16 h
Procedure: as §2, §3

[12] = tested on: LNCaP; test: Transwell Matrigel cell invasion assay; assay type: cell-based, human; settings: saposin C 0.1-10 nM, 16 h
Procedure: as §2, §3

[13] = tested on: p90RSK; test: Phospho-specific Western, p90RSK; assay type: cell-based, human
Procedure: as §1

[14] = tested on: MEK1/2; test: Phospho-specific Western, MEK1/2; assay type: cell-based, human; settings: normal prostate epithelial cells; 0.1, 1.0, 10 nM
Procedure: as §1

[15] = tested on: pro-cathepsin D and cathepsin D; test: Western blot of culture supernatant for cathepsin D expression; assay type: cell-based, human; settings: LNCaP and normal prostate stromal cells; 0.1, 1, 10 nM; 24 h; compared to control (0 nM)
[16] = tested on: normal prostate epithelial cells; test: Protection from NaSe-induced cell death (trypan blue exclusion); assay type: cell-based, human; settings: NaSe 10 μM, 48 h
[17] = tested on: PC-3 cells; test: as above; assay type: cell-based, human; settings: NaSe 10 μM, 48 h
[18] = tested on: soluble uPA receptor (uPAR); test: Western blot of supernatant for soluble uPAR; assay type: cell-based, human; settings: normal prostate stromal cells, PC-3 and DU-145; 0.1, 1.0, 10 nM; 24 h
Procedure: (§4) To investigate the effect of saposin C on expression of both urokinase-type plasminogen activator (uPA) and the soluble uPA receptor (uPAR), normal prostate stromal cells and prostatic cancer cells (PC-3, DU-145, LNCaP) were cultured in media as described in Example 1. The cells were cultured in the preferred media up to 80% confluency, then washed twice with PBS, and incubated for 24 h at 37° C. in serum-free medium supplemented with either 0, 0.1, 1.0 or 10 nM saposin C. At the end of the incubation period, the cell-conditioned medium (Supernatant) was collected. The Supernatants were concentrated 5-fold using Centriprep-3 concentrator (Amikon, Beverley, Mass.), and stored frozen in −70° C. until use.
(§5) A Western blot analysis was performed (as in Examples 2 and 6) using commercially available anti-uPA and anti-uPAR antibodies (Cat# 389 and Cat# 399R, respectively; American Diagnostica Inc., Greenwich, Conn.).

[19] = tested on: prostate (PC-3, DU-145, LNCaP), breast (MCF-7), lung (H1299), and colon (LoVo) cancer cells; test: Cytotoxicity / cell number, all tested cancer cell lines incl. competitive inhibition; assay type: cell-based, human
Procedure: The conjugate of saporin and TX14A was made by special order by Advanced Targeting Systems with a 1:1 molar ratio between the peptide and saporin. Blank-SAP, a non-targeted saporin conjugate, was purchased as a control (ATS, Catalogue# IT-21). Exponentially growing cells were trypsinized and cultured in their complete culture media (1000/well in 96-well plates) as described in Example 1. After 1 day of incubation at 37° C., the culture media were supplemented with either TX14A, saporin, TX14A-saporin (conjugate), Saposin C, TX14A-saporin plus TX14A, or TX14A-Saporin plus Saposin C at the following concentrations: 0, 0.1, 1, 10, 100, 1000 nM. Three days after treatment, cell death was monitored with a Promega (Madison, Wis.) cell titer cytotoxicity kit. Cell counts were normalized to the media controls.

[20] = tested on: colon cancer cells (LoVo); test: Transwell cell migration assay; assay type: cell-based, human; settings: saposin C 0.1-10 nM
Procedure: as §2, §3
(§6) To test the effect of saposin C on migration and invasion of non-prostatic cancer cells, assays using human breast cancer cell line (MCF-7), colon cancer cell line (LoVo), and lung cancer cell line (H1299) were performed in 24-well transwell units with polycarbonate filters as described above in Example 5.

[21] = tested on: lung cancer cells (H1299); test: Transwell cell migration assay; assay type: cell-based, human; settings: saposin C 0.1-10 nM
Procedure: as §2, §3, §6

[22] = tested on: breast cancer cells (MCF-7); test: Transwell cell migration assay; assay type: cell-based, human; settings: saposin C 0.1-10 nM
Procedure: as §2, §3, §6

[23] = tested on: colon cancer cells (LoVo); test: Transwell Matrigel cell invasion assay; assay type: cell-based, human; settings: saposin C 0.1-10 nM
Procedure: as §2, §3, §6

[24] = tested on: lung cancer cells (H1299); test: Transwell Matrigel cell invasion assay; assay type: cell-based, human; settings: saposin C 0.1-10 nM
Procedure: as §2, §3, §6

[25] = tested on: breast cancer cells (MCF-7); test: Transwell Matrigel cell invasion assay; assay type: cell-based, human; settings: saposin C 0.1-10 nM
Procedure: as §2, §3, §6

[26] = tested on: urokinase-type plasminogen activator (uPA); test: Western blot of supernatant for uPA; assay type: cell-based, human; settings: normal prostate stromal cells, PC-3 and DU-145; 0.1, 1.0, 10 nM; 24 h
Procedure: as §4, §5

[27] = tested on: p42/44 MAP Kinases; test: Phospho-specific Western, p42/44 MAP kinases; assay type: cell-based, human
Procedure: as §1

[28] = tested on: non-prostatic cancer cells (MCF-7, LoVo, H1299); test: Transwell migration and invasion, all cells tested; assay type: cell-based, human
Procedure: as §2
Cultured cells were freshly harvested by trypsinization and counted. Approximately 5000 cells were resuspended in 100 μl of serum-free medium With 0.1% BSA, and were placed in the upper compartment of the transwell unit. After 16 h of incubation at 37° C., cells in both the upper and lower compartments were fixed in methanol and stained with Diff-Quick (Dade, Aguada, Puerto Rico). […] Cells under the filter were counted. […] Each bar represents the mean +/−SEM of three duplicate experiments, and samples from each experiment were counted at least three times. […]

[29] = tested on: prostate cancer cells and normal prostate cells; test: Protection from NaSe-induced cell death, cell lines overall; assay type: cell-based, human; settings: dose dependent; NaSe 10 μM; 48 h
[30] = tested on: normal prostate epithelial cells; test: Cell proliferation (living cells, trypan blue exclusion); assay type: cell-based, human; settings: 0.1, 1.0, 10 nM, 2 days
Procedure: To test the effects of saposin C and TX14A on cell proliferation, various cells were cultured as described in Example 1, incubated in only fresh media, or in media supplemented with saposin C or with TX14A at concentrations of 0.1, 1.0, and 10 nM. After incubation for 2 days, the number of living cells was determined by trypan blue exclusion method, as described above in Example 3. The results are shown in FIG. 3, in which each point represents the mean +/−SEM of three duplicate experiments.

[31] = normal prostate epithelial cells, decreased at 0.1 nM, increased at 1.0 nM, decreased at 10 nM

C[C@]12CCC(=O)C[C@@H]1CC[C@@H]1[C@@H]2CC[C@]2(C)[C@@H](O)CC[C@@H]12 [DHT, dihydrotestosterone]
expression of prosaposin [1]: stimulated the expression

O=[Se]([O-])[O-].[Na+].[Na+] [NaSe, sodium selenium]
toxic effect of NaSe [2]: resistant

C[C@]12CC[C@H]3[C@@H](CCC4=CC(=O)CC[C@@]43C)[C@@H]1CC[C@@H]2O [T, testosterone]
expression of prosaposin [1]: stimulated the expression

N#CC(=C(/N)Sc1ccccc1N)/C(C#N)=C(\N)Sc1ccccc1N [U0126, reference compound]
inhibition of saposin C / TX14A activation of MAPK pathway enzymes ([3]; U0126 10 μM pre-treatment 1.5 h, stromal): substantially inhibited

B1: saposin C: Human saposin C, about 8–13 kDa protein proteolytically generated from prosaposin; obtained from Professor K. Sandoff (protein, UniProt P07602 311-390, looked up)
Saposin-C: SDVYCEVCEFLVKEVTKLIDNNKTEKEILDAFDKMCSKLPKSLSEECQEVVDTYGSSILSILLEEVSPELVCSMLHLCSG
modifications: Saposin-C
notes: Human saposin C, about 8–13 kDa protein proteolytically generated from prosaposin; obtained from Professor K. Sandoff
stimulation of migration [4]: more than 300% | stimulation of migration [5]: 140% | migration through the filter [6]: neither migrated through the filter | stimulation of migration [7]: 50% | protective effect, difference in the percent cell death with and without saposin C [8]: 50% | extracellular level of PSA [9]: significantly increased | stimulation of invasion [10]: 100% | stimulation of invasion [11]: 70% | stimulation of invasion [12]: 48% | activation of the enzymes in the MAPK signaling transduction pathway ([3]; normal prostate stromal cells, nanomolar concentrations, 5 min): activated | pattern of p90RSK phosphorylation activity [13, 31]: biphasic pattern | pattern of p90RSK activity ([13]; normal prostate stromal cells): biphasic pattern | expression of MEK1/2 (phospho-MEK1/2 Western) [14]: dose-dependent increase | expression of pro-cathepsin D (50 kDa band) and active mature cathepsin D (36 kDa band) [15]: stimulate expression | protection from cell death [16]: Neither Saposin C nor TX14A protected | protective effect, difference in the percent cell death with and without saposin C [17]: 55% | extracellular level of uPAR [18]: increased | cell proliferation of all cancer cell lines ([19]; 0.1-1000 nM, three days, much greater effect in PC-3 and DU-145): increased | effect on TX14A-saporin cytotoxicity in competitive inhibition assays ([19]; equimolar mixture with TX14A-saporin, simultaneous treatment): inhibited in a dose dependent manner | increase of migration [20]: 22–59% | increase of migration [21]: 44–460% | increase of migration [22]: 12–59% | increase of invasion [23]: 16–37% | increase of invasion [24]: 19–195% | increase of invasion [25]: 22–36% | extracellular level of uPA [26]: increased | pattern of p42/44 phosphorylation activity [27, 31]: biphasic pattern | increase in p42/44 phosphorylation as compared to the control ([27]; normal prostate stromal cells, densitometry): 15 fold | concentration at which the highest migration and invasion was seen [28]: 1 nM | degree of cell death in the presence of NaSe [29]: decreased the degree of cell death | effect on growth [30]: did not show any effect
